# Data from the DeepSol protein solubility set.
# Assay: soluble on expression in E. coli; label from the status in PepcDB or PDB records
row,Sequence,soluble on expression in E. coli
1,MSLNVVVQKYGGSSVATPERIKNVAQRIKKKVDEGYKVVVVVSAMGKTTDNLIKLAKEISPRPDSRELDMLLATGEQVSAALLSMALKDLGVKAKSLNAFQVKIKTTPHHTSARIVDIDDSVIRENLKDYDVLVVTGFQGVNEHGDLTTLGRGGSDTSAVALAAKLRVPCEIYSDVDGIYTCDPRVHPRAKKLAYITYDEALELTALGAKVLHSRSVEIAKKYGIPIYCASSFTEEEGTMVVERLPEWLEEPVVTGATISHGQIKVSISFLPKDVKYITAIFEEVGKRALNVDMISLVPSNGKVFLSFTILEDHKEDLDEALKEALRDVEGWKSTYEGGFAKLSIVGVGMRTSPGVAARFFEALERAGVTPELVTTSEIKISCLVPEEKAEEALKSVIEEFELEGHHHHHH,soluble
2,MSLNYKNYTVMLVDDEQPILNSLKRLIKRLGCNIITFTSPLDALEALKGTSVQLVISDMRMPEMGGEVFLEQVAKSYPDIERVVISGYADAQATIDAVNRGKISRFLLKPWEDEDVFKVVEKGLQLAFLREENLRLQEETEAKNKQEGHHHHHH,soluble
3,MSLNYSHAFHAGNHADVLKHIVLLALLDGLVRKETPFFVLDSHAGRGRYLLSAGESRNTREAESGVMRLIARPQRLEVIKRYVDVVQADNVSQTRAASTPMHISRYPGSSLLAAQVCRAQDRMVFCELHPKEAAALNALFVHDPRVRVHAGDGYAAVRAFLPPKVGTQRIGRGLVFIDPPYEAQDAEYPLVLGALRETLTRWPQAICAVWYPIKQRRRLQPFFRKAVGLPVRSVLIAELLVRLDDSPLRLNGSGMLLLNVPWQFDQLLAPALPVLKTQLGESGARTRLEWLKVPQEGHHHHHH,not soluble
4,MSLNYSVLPPEINSLRMFTGAGSAPMLAASVAWDRLAAELAVAASSFGSVTSGLAGQSWQGAAAAAMAAAAAPYAGWLAAAAARAAGASAQAKAVASAFEAARAATVHPMLVAANRNAFVQLVLSNLFGQNAPAIAAAEAMYEQMWAADVAAMVGYHGGASAAAAQLSSWSIGLQQALPEGHHHHHH,soluble
5,MSLPPSQSDRDPFSVTMCHSTLASLPLVYACSGCSSVAQLANTFAVRLDRSGAAEMSCISGVGGGVPALTRVARSGRPILALDGCALSCVKACLASVDVVPDRHLVLNRLGATKRQHGVCTEAEEAETWDAVQQALAEVRGAMEGHHHHHH,soluble
6,MSLQAANLRQSRSMTLGLIVTEIINPYFAELAMAVDQIAHDAGYTIFIGYSRDHADRQHEIISSMIERQVDGILLLPAPDTDPEKLAKQVNAAGVPVVLLARRFAGFDYVGSENVKGATILGDHLSALGCRSVAFLGGLTASSLAEREEGLRASLEPRGCDVWSVDEFRSPITPEGGVAAVGRLFDQGKLPDAIIAYNDAVAQGIYDEMRRRGLEPGRDLAVASFDDTRIAASQVPPMTSVAGFPQEIGAKGAEMLMTRLADGNEDIPTQLTLIQPQLKIRSSTATWRREGHHHHHH,soluble
7,MSLQAVTLSVLVVEDTDCERFYITHLLRQFGWLVESRSNGKAALDYLQQNEVHILVSDWRMPEMSGIELCQIVKNNHLPPFVILLTANNQTADIVLGIEAGADDFICKPFLPELLKVRMLAAMRIVQLQHNLSRNEGHHHHHH,not soluble
8,MSLQDLTINAIGAQGDGLARTADGKPAFVPLTLPGEVVRAKMDGARGEVVEILAPSPERVAPACRHYGVCGGCALQHWAAEPYRAWKAEQVRLQLSMEGLETEILPTFAAPPASRRRVALHARKGGKGQGARLGFKERRSWNLVSIEECPVTDPRLVAALPALARLAEPFLEHPKSAPTLHVTLTATGLDIDITGVERKSGGLSADARMRAAMAAGEGDFARVTLAGETIYGARQPLVKLGQAVVALPPGSFLQAVPAAEKAMVELAVAEAQGASRVADLYCGVGTFTFPLAEVAQVYAAEMSAPAITALKAAIGGAPGLKPITAEARDLVRRPVLSTELAKTDVVVIDPPRAGAAEQTVEIAKSKVAKVLGVSCNPQTFAKDARVLVDAGFKLVRVTPVDQFVWSPHIELVGVFTREGHHHHHH,soluble
9,MSLQEWTKEDSLRLRKLLDSDQELNLNQDAVRQIDFGSAVGTPRMSVEKKWMLPDESLPEALPKPKVVLSLMPYKANTPYNWDPVFQKKIRMDKNTWRGDPHYEMRHQRSYSNWAHNPMAGGVRKSLEEIRASGVRFRQLSERANGMMVNSVVMDSPIPLFGGSGVYINGGTIGGLDLMAVFTKNFWDKKGKERRERTLEVLRTYGDSTTVLINRPIEQIAREGHHHHHH,soluble
